Reference: publication PMC9519624

Biological target: IPO11 (Importin-11) (UniProt Q9UI26)
Assay: co-immunoprecipitation, western blot
Settings: reference: wild-type RPRM; sites S98

**Q.** For “RPRM (Reprimo) (from UniProt Q9NS64) RPRM S98A”, which “binding against the reference” value is on record?
**A.** stronger
